Test results published in article PMC5913134, “The IL-33-PIN1-IRAK-M axis is critical for type 2 immunity in IL-33-induced allergic airway inflammation” (Nature Communications, 2018).

Legend:
[1] = system: WT, PIN1 KO and IRAK-M KO mice; experiment: IL-33-induced airway inflammation in mice; assay type: in vivo, mouse; details: for BALF TH2 cytokines (IL-4, -5 and -13): IL-33 intranasal
Method: Male mice in each group, 3-5 weeks old were anesthetized using Isoflurane. The mice were treated intranasal with 200ng/mice/day for four continues days. By the fifth day the mice were killed by CO2 suffocation, and bronchial alveolar lavage fluid (BALF) was extracted using PBS. The lungs were extracted and fixed using 10% para formaldehyde. Immunofluresence of slide sections was performed. Slides were analyzed using anti-PIN1 antibodies and anti-IRAK-M antibodies or IgG as control and were counterstained using DAPI. In some cases, cells obtained from BALF were cytospined and the cells were fixed and stained in the same manner. For staining of the cells, Diff-Quick (Diff-Quik) Staining Protocol were used. All animal work was carried out in compliance with the ethical regulations approved by the Animal Care Committee, Beth Israel Deaconess Medical Center, Boston, MA, USA. The permission was granted to perform animal experiments by the Institutional Animal Care and Use Committee at Beth Israel Deaconess Medical Center, Boston, MA, USA.

[2] = system: IRAK-M; experiment: IRAK-M nuclear localization in DC2.4 cells; assay type: cell-based, C57BL/6; details: DC2.4 cells, after IL-33 induction
Method: Suppl em enta ry Figur e 3. a DAPI IR AK-M Pin1 Mergeb […]
Supplementary Figure 3. Pin1 targets IRAK-M and promotes its nuclear translocation upon IL-33 induction.
(a) Immunostaining for IRAK-M and Pin1 in DC2.4 cells before and after IL-33 treatment. ( b) DC2.4 cells were treated with IL-33 and subjected to nuclear/cytoplasmic fractionation, followed by Western blot for IRAK-M with actin as a cytoplasmic marker and Fox1 as a nuclear marker. C- cytoplasmic; N- Nuclear.
(c) Cytospin slides from BALF of the treated WT mice as indicated, were co stained for DC205 and IRAK-M.
(d) IRAK-M or its mutants S110E or P111A were stably expressed in DC2.4 cells and their localization and Pin1 localization were monitored by immunostaining. (e) GFP-IRAK-M were expressed in Pin1 KO MEFs either with or without RFP-Pin1 as indicated, and their localization was monitored. Scale = 50 µm.
(also on this page, place not known: Control +IL-33: b DAPIe MergeGFP RFP GFP- GFP-IRAK-M/ RFP MergeIRAK-M Pin1DAPI ControlIL-33 Mergec Supplementary Figure IRAK-M IRAK-M (b) IL-33 IRAK-M IRAK-M Pin1) […]

[3] = system: IRAK-M; experiment: IRAK-M phosphorylation in DC2.4 cells; assay type: cell-based, C57BL/6; details: DC2.4; IL-33 100 ng/ml, 1 h, γ-32P labeling
Method: (§1) Fig. 2 IL-33 induces IRAK-M phosphorylation and binding to PIN1. a GST PIN1 pulldown assay with DC2.4 cell extracts either non-treated or treated with IL-33 (100 ng/ml) or LPS (100ng/ml) for 1 h. […] The cells were washed with fresh medium and treated with 100 ng/ml IL-33 for the indicated times prior to IRAK-M immunoprecipitation. d DC2.4 cells stably expressing IRAK-M were treated with IL-33 and at the indicated time points were subjected to CO-IP using anti-PIN1 antibody and blotted for IRAK-M. e HEK293 cells were transfected with different IRAK-M constructs expressing the N’ terminal domain (aa1-220), the middle portion of the protein (aa220-440) or the C’ terminal domain (aa 440-630), and then treated with IL-33, followed by CO-IP for PIN1. f DC2.4 cells stably expressing IRAK-M were treated with IL-33 and subjected to GST or GST-PIN1 pull-down.

[4] = system: PIN1-IRAK-M interaction; experiment: GST-PIN1 pulldown of IRAK-M from DC2.4 cell extracts; assay type: cell-based, C57BL/6; details: 100 ng/ml, 1 h, DC2.4 extracts
Method: as §1
Glutathione-Sepharose 4B (Amersham) coupled with glutathione S-transferase (GST) or GST-PIN1 and washed with 150 mM NaCl, 20 mM Tris-HCl (pH 8), 1 mM MgCl2, and 0.1% NP-40 was mixed with 1 mg of total protein extract for 3 h at 4 °C. The beads were then washed extensively, and the protein was eluted with 20 mM reduced glutathione. The proteins were resolved by SDS-PAGE and visualized by Western analysis or autoradiography. […]

[5] = system: IRAK-M; experiment: IRAK-M protein levels in BMDCs; assay type: cell-based, mouse; details: BMDC from WT and PIN1 KO mice, IL-33, time-dependent
[6] = system: Il6, Csf3, Cxcl2 and Ccl5 expression in DC2.4 cells; experiment: qRT-PCR of Il6, Csf3, Cxcl2 and Ccl5 in DC2.4 cells; assay type: cell-based, C57BL/6; details: IL-33, pLKO control DC2.4 cells
Method: Also as indicated, some cells were pretreated for 3 days with 5 μM or 10 μM of ATRA before IL-33 induction. e Relative gene expression of Il6, Csf3, Cxcl2 and Ccl5 in the different samples as in d normalized to actin. f IRAK-M was stably expressed in pLKO or TET on shPin1 expressing cells, followed by induction with IL-33, before western blot to examine protein expression of IRAK-M, PIN1 and tubulin as well as g qRT-PCR to determine the relative gene expression for Il6, Csf3, Cxcl2 and Ccl5 in the different samples.
SYBR Green PCR Master Mix (Applied Biosystems, Foster City, CA) was used for two-step real-time RT-PCR analysis on an Applied Biosystems StepOnePlus Real Time PCR instrument. […] Expression value of the targeted gene in a given sample was normalized to the corresponding expression of Actin. The 2^–ΔΔCt method was used to calculate relative expression of the targeted genes.

[7] = system: naive CD4^+ cells co-cultured with BMDCs; experiment: BMDC / naive CD4+ T cell co-culture TH2 polarization, IL-5 and IL-13 secretion; assay type: cell-based, C57 B6 mice; details: WT BMDC + naive CD4+ T cells, IL-33 50 ng/ml, 5 days
Method: Supplementary Figure 7. IRAK-M KO or Pin1 KO derived bone marrow dendritic cells attenuates Naïve TH2 cell differentiation upon IL-33 induction in co culture experiment. Naïve CD4+ T cells isolated from C57 B6 mice were cultured with or without IL-33 (50ng/ml) and BMDCs isolated from WT, IRAK-M KO (a) or Pin1 KO mice (b) in a 1:5 ratio for 5 days with no antigen being added. In some cases as indicated 5 µM of ATRA was added to the medium two days prior to T cell co culturing and during the experiment. Supernatants were analyzed for cytokines on day 5. The data were analyzed by a Student's two-tailed t test and the values are reported as mean ± standard errors of the means (SEM). *- statistical significance (P<0.05), **- significance (P<0.01).

B1: IL-33: Recombinant mouse IL-33 purchased from BioLegend (protein, UniProt Q8BVZ5 1-266, looked up)
Interleukin-33: MRPRMKYSNSKISPAKFSSTAGEALVPPCKIRRSQQKTKEFCHVYCMRLRSGLTIRKETSYFRKEPTKRYSLKSGTKHEENFSAYPRDSRKRSLLGSIQAFAASVDTLSIQGTSLLTQSPASLSTYNDQSVSFVLENGCYVINVDDSGKDQEQDQVLLRYYESPCPASQSGDGVDGKKLMVNMSPIKDTDIWLHANDKDYSVELQRGDVSPPEQAFFVLHKKSSDFVSFECKNLPGTYIGVKDNQLALVEEKDESCNNIMFKLSKI
- response (infiltrates, cell counts) ([1]; PIN1 KO mice, intranasal 200 ng/mice/day, 4 days): very mild responses
- BALF TH2 cytokines (IL-4, -5 and -13) ([1]; PIN1 KO or IRAK-M KO mice): dramatically attenuated
- BALF TH2 cytokines (IL-4, -5, -6 and -13) ([1]; PIN1 KO vs WT mice, IL-33 intranasal 200 ng/mice/day, 4 days): drastically lower
- BALF TH2 cytokines (IL-4, -5 and -13) ([1]; WT mice): high levels of TH2 cytokines
- lung inflammation ([1]; WT mice, intranasal 200 ng/mice/day, 4 days): moderate to severe inflammation and high levels of infiltrating cells, especially eosinophils
- lung inflammation and bronchial remodeling ([1]; WT mice, intranasal IL-33): severe lung inflammation and bronchial remodeling
- IRAK-M expression in lung cells ([1]; WT mice, intranasal IL-33, immunostaining): dramatically increased IRAK-M expression
- lung expression of Il6, Csf3, Cxcl2 and Ccl5 ([1]; WT mice, whole lung tissue, qRT-PCR): upregulated
- IRAK-M nuclear localization [2]: also evident in the nucleus
- IRAK-M phosphorylation [3]: IRAK-M was phosphorylated
- PIN1-IRAK-M interaction [4]: specific interaction
- IRAK-M protein levels [5]: increased IRAK-M protein levels in WT, but not PIN1 KO cells
- expression of the four target genes [6]: upregulated
- IL-5 and IL-13 secretion [7]: high levels of IL-5 and -13
